The text below walks through data of publication PMC8323339 (Immunity, 2021).

Experiment [1] concerns the target T1, SARS-CoV-2 Spike receptor-binding domain (RBD), wild type, as used for BLI (SARS-CoV-2, wild type, UniProt P0DTC2).
In experiment [2] the target is T1, SARS-CoV-2 Spike receptor-binding …. The experiment in a line: BLI. For orientation: BLI is a label-free optical method that tracks binding on a fibre tip over time.
Experiment [3] has as its target SARS-CoV-2 RBD, as used for crystallization (SARS-CoV-2, wild type, UniProt P0DTC2). The experiment in a line: crystal structure.

Read-outs that look alike come from different tables or passages of the source.

B1: C549 (antibody, V domains shown)
VH: QVQLVQSGAEVKKPGSSVKVSCKASGGTFSTSAISWVRQAPGQGLEWMGGIIPFFGTPNYAQKFQGRVTIIADESTTTAYMELSGLRFEDSAVYYCARREPYGPRDYYYFFGMDVWGPGTTVTVSS
VL: QSALTQPPFASASLGASVTLTCTLSSDYSYYKVDWYQQRPGKGPRFVIRVGPGGIVGSKGDGFPDRFSVLGSGLNRSLTINNIQEEDEGDYHCGADEGSGGTFVGVFGGGTKLTV
On to B1, for which the binding result in experiment [1] is on record as “binds”.

B2: C548 IgG (antibody, V domains shown)
VH: QVQLVQSGAEVKKPGSSVKVSCKASGGTFSSYAISWVRQAPGQGLEWMGGIIPIFGTANYAQKFQGRVTITADESTSTAYMELSSLRSEDTAVYYCARREAYGPRDYYYYYGMDVWGQGTTVTVSS
VL: QSALTQPPSASASLGASVTLTCTLSSGYSNYKVDWYQQRPGKGPRFVMRVGTGGIVGSKGDGIPDRFSVLGSGLNRYLTIKNIQEEDESDYHCGADQGSGSNFVGVFGGGTKLTV
As for B2, the binding result in experiment [2] was “binds”.

B3: C099 IgG (antibody, V domains shown)
VH: EVQLVESGGGLIQPGGSLRLSCAASGITVSSNYMSWVRQAPGKGLEWVSVMYAGGSTFYADSVKGRFTISRDDSKNTLFLQMNSLRAEDTAIYYCARDLYSSGGTDIWGQGTMVTVSS
VL: EIVLTQSPGTLSLSPGERATLSCRASQSIGSSYLAWYQQKPGLAPRLLIYGASRRATGIPDKFSGSGSGADFTLTISRLEPEDFAVYYCQQYGSSPGTFGQGTKVEIK
Turning to B3, the binding result in experiment [2] is “binds”.

B4: C099 Fab (Fab, V domains shown)
VH: EVQLVESGGGLIQPGGSLRLSCAASGITVSSNYMSWVRQAPGKGLEWVSVMYAGGSTFYADSVKGRFTISRDDSKNTLFLQMNSLRAEDTAIYYCARDLYSSGGTDIWGQGTMVTVSS
VL: EIVLTQSPGTLSLSPGERATLSCRASQSIGSSYLAWYQQKPGLAPRLLIYGASRRATGIPDKFSGSGSGADFTLTISRLEPEDFAVYYCQQYGSSPGTFGQGTKVEIK
As to B4, in experiment [3], the binding result was “binds”.

B5: C080 IgG (antibody, V domains shown)
VH: EVQLVQSGAEVKKPGESLNISCKASGYSFTIYWIAWVRQLPGKGLEWMGIIYPGDSDTRYSPSFQGQVTISADKSISTAYLQWRSLKASDSAVYYCARGVAVDWYFDLWGRGTLVTVSS
VL: QSVLTQPPSVSGAPGQRVTISCAGSSSNIGAGFDVYWYQQLPGTAPKLLIYGNNNRPSGVPDRFSGSKSGTSASLAITGLQAEDEADYYCQSSGSVLSDLYVFGTGTKVTVL
With B5, the binding result in experiment [2] was “binds”.
